{"source": "the nanobody polyreactivity screen of Harvey et al. (2022)"}
{"assay": "yeast display, Sf9 membrane polyspecificity reagent, FACS + sequencing; frameworks hold sequencing errors", "summary_of_the_method": "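After 36–48 hours of galactose induction, yeast (Saccharomyces cerevisiae BJ5465) displaying a synthetic nanobody library were stained at 4 °C for 1 hour with 10% biotinylated, detergent-solubilized Sf9 membrane reagent. Streptavidin microbeads enriched the stained cells before FACS sorting into low and high (top ~1%) gates on anti-HA and streptavidin fluorescence. Each clone's polyreactivity label reflects its gate of origin.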"}
{"sequence": "QVQLVESGGCLVQAGGSLRLSCAASGRIIYSNGMGWYRQAPGKERELVAAISSGGSTYYADSVKGRFTISRDNAKNTVYLQMNSLKPEDTAVYYCNKDYLLRHYYIYVIEGDYWGQGTQVTVSS", "polyreactivity (PSR sort gate)": "low polyreactivity"}
{"sequence": "QVQLVESGGCLVQAGGSLRLSCAASGRRVQTYAMGWYRQAPRKERELVAAISIRGGSTYYADSVKGRFTISRDNAKNTVYLQKNSLTPEDTAVYYCNALYGRQIVDYEYWGQGTQVTVSS", "polyreactivity (PSR sort gate)": "low polyreactivity"}
{"sequence": "QVQLVESGGCLVQAGGSLRLSCAASGRTFGFYAMGWYRQAPGKERELVAGITQSGGSTYYADSVKGRFTISRDNAKNTVYLQMNSLKTEDTAVYYCATDYQQLDDYWGQGTQVTVSS", "polyreactivity (PSR sort gate)": "low polyreactivity"}
{"sequence": "QVQLVESGGCLVQAGGSLRLSCAASGRTFSYYAMGWYRQAPGKERELVAAIDWSGSRTYYADSVKGRFTISRDNAKNTVYLQMNSLKPEDTAVYYCIADRTRGYQRYDYWGQGTQVTVSS", "polyreactivity (PSR sort gate)": "high polyreactivity"}
{"sequence": "QVQLVESGGCLVQAGGSLRLSCAASGRTFYLYAMGWNRQAPGKEREFVARITFSGVSTYYADSVKGSFTISRDNAKNTVSLQMYRLKPEDTAVYYCNRVGHYGYSEGYYYWGQGTQVTVSS", "polyreactivity (PSR sort gate)": "high polyreactivity"}
{"sequence": "QVQLVESGGCLVQAGGSLRLSCAASGRTSDGYAMGWYRQAPGKERELVAGITEGGGDTYYADSVKGRFTISRDNAKITDYLQMNSLKPEDTAVYYCNAGEGSRLPYDYWGQGTQVTVSS", "polyreactivity (PSR sort gate)": "low polyreactivity"}
{"sequence": "QVQLVESGGCLVQAGGSLRLSCAASGSIFDAYDKGWYRQAPGKERELVAAISRSGASTYYADSVKGRFTISRDNAKNTVYLQMNSLKPEDTAVYSCAARDRQRVSYGYWGQGTQVTVTS", "polyreactivity (PSR sort gate)": "high polyreactivity"}
{"sequence": "QVQLVESGGCLVQAGGSLRLSCAASGSIFDSNAMGWYRQAPGKERELVAAITWSGGRTYYADSVKGRFTISLDNAKNTVYLQMNSLKPEDTAVYYCAARKYTLFWPYDYWGQGTQVTVSS", "polyreactivity (PSR sort gate)": "high polyreactivity"}
{"sequence": "QVQLVESGGCLVQAGGSLRLSCAASGSIFLFYAMGWYRHPPGKERELVAVIDTRASTTYYADSVKGRFTISRDNAKNTVYLQMNSLKPEDTAVYYCAAELQFTLYYSRPLLYQYYYWGQGTQVTVSS", "polyreactivity (PSR sort gate)": "high polyreactivity"}
{"sequence": "QVQLVESGGCLVQAGGSLRLSCAASGSIFRYYAKGWYRQAPGKERELVAAIRVSTGSTSYADSVKGRFTISRDTAKNTVYLQMNSLKPEDTAFYYCNARSRQVIAYRQHNYWGQGTQVTVSS", "polyreactivity (PSR sort gate)": "high polyreactivity"}
{"sequence": "QVQLVESGGCLVQAGGSLRLSCAASGSIFSRYDMGWYRQAPGKEREFVPRITQRGGSTYYADSVKGRFTISRDNAKNTVYLQMNTVKPEDTAVYYCYADHYRRQLAEDYWGQGTQVTVSS", "polyreactivity (PSR sort gate)": "low polyreactivity"}
{"sequence": "QVQLVESGGCLVQAGGSLRLSCAASGSIFVYYAMGWYRQSPGKERELVAAISWSGGSTRYADSVKGRFTISRDNAKNTVYLQMNSLKPEDTAVYYCAAKRLGGGYWGQGTQVTVSS", "polyreactivity (PSR sort gate)": "high polyreactivity"}
{"sequence": "QVQLVESGGCLVQAGGSLRLSCAASGSIFYKYAMGWYRQAPGKERELVAAITSGGRTTYADSVKGRFTISRDNAKNTVYLQMNSLKPEDTAVYYCAAVVFSRRYWVKFYYWGQGTQVNVSS", "polyreactivity (PSR sort gate)": "high polyreactivity"}
{"sequence": "QVQLVESGGCLVQAGGSLRLSCAASGSIITWNAMVWYRQAPGKERELVAAIDWDGGSTYYADSVKGRFTISRDNAKNTVYLQMHILKPEDTAVYYCAATYGWYTVRYPSGHYYYWGQGTQVTVSS", "polyreactivity (PSR sort gate)": "low polyreactivity"}
{"sequence": "QVQLVESGGCLVQAGGSLRLSCAASGSTFKRYAMGWYRQAPGKVGELVAAISKSGGSTYYADSVKGRFTISRDNAKNTDYLQMNCLNAEDTAVYYCAAGRSIGALYYGMDYWGEGTQVTVSS", "polyreactivity (PSR sort gate)": "high polyreactivity"}
{"sequence": "QVQLVESGGCLVQAGGSLRLSCAASGSTFNFYAMGWYRQAPGKEREFVAAITSSGDSTYYADSVKGRFTISRDNAKNTVYLQMNSLKPEDTAVYYCAALTPRNRYRKFDYWGQGTQVTVSS", "polyreactivity (PSR sort gate)": "high polyreactivity"}
{"sequence": "QVQLVESGGCLVQAGGSLRLSCAASGSTFTINVMGWYRQAPGKERELVAAINGGGRTNYADSVKGRFTISRDNAKNTVYLQMNSLKPEDTAVYYCAADGLSNVRQMDYWGQGTQVTVSS", "polyreactivity (PSR sort gate)": "low polyreactivity"}
{"sequence": "QVQLVESGGCLVQAGGSLRLSCAASGSTFTTNAMGWYIQAPGKERELVAAISWSGTTTYYADSVKGRFTISRDNAKNTGYLQMNSLKPEDTAVYYCAAQVVSGTVAYLDFGYWGQGTQVTVSS", "polyreactivity (PSR sort gate)": "low polyreactivity"}
{"sequence": "QVQLVESGGCLVQAGGSLRLSCAASGSTFWPYAMGWYRQAPGKERELVAAITSSGGSTYYADSVKGRFTISRDNAKNTVYLQMNSLKPEDTEVYYCAADWSNLGAYDYWGQGTQVTVSS", "polyreactivity (PSR sort gate)": "low polyreactivity"}
{"sequence": "QVQLVESGGCLVQAGGSLRLSCAASGSTLGYYAMGWYRQAPGKERELVASIRWDTASTYYADSVKGRFTISRDNAKNTVYLQMNSLKPEDTAVYYCNAGRPRFYRSRWYYYGYGYWGQGTQVTVSS", "polyreactivity (PSR sort gate)": "high polyreactivity"}
{"sequence": "QVQLVESGGCLVQAGGSLRLSCAASGSTLSYYAMGWYRQAPGKERELVAAINKSVTRTYYADSVKGRFTISRDNAKNTVYLQMNSLKPEDTAVYYCAASVPYYNGYYYNAYEYWGQGTQVTVSS", "polyreactivity (PSR sort gate)": "high polyreactivity"}
{"sequence": "QVQLVESGGCLVQAGGSLRLSCASSGSTFSPNDMGWYRQAPGKESELVADISNYADSVKGRFTISRDNAKNTVYLQMNSLKPEDTAVYYCAAEWRGDRYRLYVVSWWYDYWGQGTQVTVSS", "polyreactivity (PSR sort gate)": "low polyreactivity"}
{"sequence": "QVQLVESGGCLVQAGGSLRLSCSASGSTITYYAMGWYRQAPGKERELVAAISGRGGRTDYADSVKGRFTISRDNAKNTVYLQMNSLKPEATAVYYCARAGRVQPGSEDDYWGQGTQVTVSS", "polyreactivity (PSR sort gate)": "high polyreactivity"}
{"sequence": "QVQLVESGGCLVQAGGSLRLSCSSSGSTFEYNAIGWYRQAPGKERELVAAIRSSSSTHYADSVKGRFTISRDNAKNTVYLQMNSLKPEDTAVYYFNTDAHYYDHWGQGTQVTVSS", "polyreactivity (PSR sort gate)": "low polyreactivity"}
{"sequence": "QVQLVESGGCLVQAGGSLRLSCSTSGSTFAVYVMGWSRQAPGKERELVAAISTSGARTYYADSVKGRFTISRDNAKNTDYLQMNSLKPEDTAVYYCAARGIYKSKYDYWGQGTQVSVSS", "polyreactivity (PSR sort gate)": "high polyreactivity"}
{"sequence": "QVQLVESGGCLVQAGGSLRLSSPASGITFPDYDMGWYRQAPGKERELVAAITYRSGSTYYADSVKGRFTISRDNAKNTVYFQMNSLKPEDTAVYYCAAKRFLLRYYTKQYNYWGQGTQVTVSS", "polyreactivity (PSR sort gate)": "high polyreactivity"}
{"sequence": "QVQLVESGGCLVQAGGSLRLTCAASGFIFPYYAMGWYRQAPGKERELVAGITGADSTYYADSVKGRFTISRDNAKNTVYLQMNSLKPEDTAVYYCARKRYSLSRTYNYGYWGQGTQVTVSS", "polyreactivity (PSR sort gate)": "high polyreactivity"}
{"sequence": "QVQLVESGGCLVQAGGSLRLTCAASGRTFYRYAMGWSRQAPRKERELVAAITTSGGSTYYADSVKGRFTISRDNAMTTVFLQKNSLNPDDTEVYYCAATYYGYHIRDDYWGQGTQVTVSS", "polyreactivity (PSR sort gate)": "low polyreactivity"}
{"sequence": "QVQLVESGGCLVQAGGSLSLSCAASGFTFSWNAMGWYRQAPGKERELVATITRSGSTYYADSVKGRFTISRDNAKNTVYLLMNSLKPEDTAVYYCAVVSWYRYSRYENDYWGQGTQVTVSS", "polyreactivity (PSR sort gate)": "high polyreactivity"}
{"sequence": "QVQLVESGGCLVQAGRSLRLSCAASGSTFYYNAMAWYRQAPGKERELVAAITFTGGSTYADSVKGRFTISRDNAKNTVYFQMNSQKPEDTAVYYCAATIQGHDYLGTGYDYWGQGTQVTVSS", "polyreactivity (PSR sort gate)": "low polyreactivity"}
{"sequence": "QVQLVESGGCLVQARGSLRLSCAASGFIFRSYAMGWYRPAPGKERELVAAISRSGGSTYYADSVKGRFTISRDNAKNTVYLQMNSLKPEDTAVYYCAAEYRIPYFFTYVYWGQGTKVTVSS", "polyreactivity (PSR sort gate)": "high polyreactivity"}
{"sequence": "QVQLVESGGCLVQARGTLRLSCASSGRTIYLYAMPWYRQAPAKERELVAAITKSGGSTYYADSVKGRFTISRDIAMNTVYVQMNSLKPQDTAFYYCYKDLSSTNLDYWGQGTQFTVSS", "polyreactivity (PSR sort gate)": "low polyreactivity"}
{"sequence": "QVQLVESGGCLVQEGGSLRLSCPASGSIFDDYAMGWYRQAPGKERELVAAISDSCGSTYYADSVKGRFTISRDNAKNTVYLQMNSLNQEDTAVYYCNADRDDDYDYWGEGTQVTVSS", "polyreactivity (PSR sort gate)": "low polyreactivity"}
{"sequence": "QVQLVESGGCLVQSGGRLRLSCAASGRIFYPYVMGWYRQAPGKEREFVAAITRSGGSTNADSVKGLFTISRDNAKNTVYLLLNSLKPEDTAVYYCARRVNRRYPFYQRDYWGQGTQVTVSS", "polyreactivity (PSR sort gate)": "high polyreactivity"}
{"sequence": "QVQLVESGGCLVQSGGSLRLSCAATGSTFGRNAMGWSRQAPGKESELVAAISRGGGITYYADSVKGRFTISRDNAKNTVYFQMNSLKPEDTAVYYCNAYLSKYFRYDYWGQGTQVTVSS", "polyreactivity (PSR sort gate)": "high polyreactivity"}
{"sequence": "QVQLVESGGCSVQAGGSLRLSCAAAGRIFSYYAMGWYRQAPGKERELVAAITSGGRTYYADSVKGRFTISRDNAKTTVYLQMNSLKPEDTAVYYCAVGVRNQYYYWGQGTQVTVSS", "polyreactivity (PSR sort gate)": "high polyreactivity"}
{"sequence": "QVQLVESGGDLVQAGGSLRLSCAASGITFRRYTMGWYRQAPGKERELVAAISSGGSTNYADSVKGRFTISRDNAKNTVYLQMNSLKPEDTAVYYCAATRRYIQYGYDYWGQGTQVTVSS", "polyreactivity (PSR sort gate)": "high polyreactivity"}
{"sequence": "QVQLVESGGFLVQAGGSHRLSCAASGFTFQSNSMVWYRQAPGKERELVATITYSGGRTYYADSVKGRFTISRDNAKNTVYLQMNSLKPEDTAVYSCAARLAPLYRTYYYWGQGTQVTVSS", "polyreactivity (PSR sort gate)": "low polyreactivity"}
{"sequence": "QVQLVESGGGEVQAGGSLRLSCAASGNIFVKYNMGWYRQAPGKERKLVAAIRWSGGTTNYADSVKGRFTISRDNAKSTVYLQMNSLKPEDTAVYYCNTGYWFFGYNEYDYWGQGTQVTVSS", "polyreactivity (PSR sort gate)": "low polyreactivity"}
{"sequence": "QVQLVESGGGFDQARCSLRLSCPACASILREYAMGWYRQAPGKERELVATISRDGSTNYADSVKGRFTISRDNAKNTVYLQMNSLKPEDTAVYYCNTDLTYPYPNVEVLVYGFKLDYWGQGTQVTVSS", "polyreactivity (PSR sort gate)": "low polyreactivity"}
{"sequence": "QVQLVESGGGFVQAGGSLRLSCAASGFTFKAYAMGLYRQAPGKERELVATINRSGTGTYYADSVKGRFTISRDYAKNTVYLLMNSLKPEDTAVYYCNKRSHHNYYTYDYWGQGTQVTVSS", "polyreactivity (PSR sort gate)": "high polyreactivity"}
{"sequence": "QVQLVESGGGFVQAGGSLRLSCAASGRIFYGYAMGWYRQAPGKERELVAAISSGGITYYADSVKGRFTISRDNAKNTVYLQMNSLKPEDTAVYYCAADWAYYVASYLYYTFDYWGQGTQVTVSS", "polyreactivity (PSR sort gate)": "low polyreactivity"}
{"sequence": "QVQLVESGGGFVQAGGSLRLSCAASGRTFRKYAMGWYRQAPGKERELVAAITSSGGSTYYADSVKGRFTISRDNAKNTVYLQMNSLKPEDTAVYYCAAGRHSEDNYWGQGTQVTVSS", "polyreactivity (PSR sort gate)": "high polyreactivity"}
